Results: publication PMC3904261 (British Journal of Pharmacology, 2013)
Bridge positions count the residues as written; N and C are the ends. Ends that are not written are not given here.

B1: [Ala^6]-CGRP (peptide)
chain: ACDTAACVTHRLAGLLSRSGGVVKNNFVPTNVGSKAF-NH2
modifications: disulfide 2-7
B2: [Ala^4]-CGRP (peptide)
chain: ACDAATCVTHRLAGLLSRSGGVVKNNFVPTNVGSKAF-NH2
modifications: disulfide 2-7
B3: [Cys^5]-CGRP (peptide)
chain: ACDTCTCVTHRLAGLLSRSGGVVKNNFVPTNVGSKAF-NH2
modifications: disulfide 2-7; N-terminus assumed
SMILES: CC(C)C[C@H](NC(=O)CNC(=O)[C@H](C)NC(=O)[C@H](CC(C)C)NC(=O)[C@H](CCCNC(=N)N)NC(=O)[C@H](Cc1c[nH]cn1)NC(=O)[C@@H](NC(=O)[C@@H](NC(=O)[C@@H]1CSSC[C@H](NC(=O)[C@H](C)N)C(=O)N[C@@H](CC(=O)O)C(=O)N[C@@H]([C@@H](C)O)C(=O)N[C@@H](CS)C(=O)N[C@@H]([C@@H](C)O)C(=O)N1)C(C)C)[C@@H](C)O)C(=O)N[C@@H](CC(C)C)C(=O)N[C@@H](CO)C(=O)N[C@@H](CCCNC(=N)N)C(=O)N[C@@H](CO)C(=O)NCC(=O)NCC(=O)N[C@H](C(=O)N[C@H](C(=O)N[C@@H](CCCCN)C(=O)N[C@@H](CC(N)=O)C(=O)N[C@@H](CC(N)=O)C(=O)N[C@@H](Cc1ccccc1)C(=O)N[C@H](C(=O)N1CCC[C@H]1C(=O)N[C@H](C(=O)N[C@@H](CC(N)=O)C(=O)N[C@H](C(=O)NCC(=O)N[C@@H](CO)C(=O)N[C@@H](CCCCN)C(=O)N[C@@H](C)C(=O)N[C@@H](Cc1ccccc1)C(N)=O)C(C)C)[C@@H](C)O)C(C)C)C(C)C)C(C)C

Tests used:
AMY1(a) receptor = biological target: T1, AMY1(a) receptor (Homo sapiens, UniProt O60894+P30988); assay: cAMP production in Cos 7 cells via the AMY1(a) receptor; type: cell-based
T1 construct: HA; expressed in transfected cells; host or cells: Cos 7
Procedure: (§1) SK-N-MC cells were grown in DMEM/F12 medium supplemented with 10% fetal calf serum as described previously (Poyner et al., [1998]). […] Production of cAMP in SK-N-MC cells for all analogues except [[…]]-hαCGRP was by a radioreceptor assay, as described previously (Poyner et al., [1998]). […] For [[…]]-hαCGRP, a different clone of SK-N-MC cells was used and cAMP production was measured via AlphaScreen (Perkin Elmer, Wellesley, MA, USA), as described previously ([…] et al., [2010]). This assay was also used to investigate the action of all derivatives at the AMY1(a) receptor and other experiments using Cos 7 cells. […] GraphPad Prism 5.00 or 6.00 (GraphPad Software Inc., San Diego, CA, USA) was used for data fitting. Concentration-response curves were fitted to a sigmoidal function with Hill slope constrained to unity to obtain pEC50 and maximum responses (Emax) values. Displacement curves were analysed to obtain pIC50 values. Schild plots were fitted by linear regression to obtain slope and intercepts. pEC50 and pIC50 values were compared with that of human αCGRP using Dunnett's test with either a normal or repeated measures one-way ANOVA, as appropriate.

CGRP receptor [1] = biological target: T2, CGRP receptor (Homo sapiens, UniProt O60894+Q16602); assay: β-arrestin 2 translocation in CHO-K1 cells (PathHunter eXpress); type: cell-based; set-up: host or cells: CHO-K1 (PathHunter eXpress β-arrestin kit)
Procedure: (§2) GraphPad Prism 5.00 or 6.00 (GraphPad Software Inc., San Diego, CA, USA) was used for data fitting. Concentration–response curves were fitted to a sigmoidal function with Hill slope constrained to unity to obtain pEC50 and maximum responses (Emax) values. Displacement curves were analysed to obtain pIC50 values. Schild plots were fitted by linear regression to obtain slope and intercepts. pEC50 and pIC50 values were compared with that of human αCGRP using Dunnett's test with either a normal or repeated measures one-way ANOVA, as appropriate.

CGRP receptor [2] = biological target: T2, CGRP receptor; assay: Displacement of 125I-CGRP binding to SK-N-MC cell membranes; set-up: relative expression levels of the receptors (endogenous vs. overexpressed); endogenous in cells; host or cells: SK-N-MC cells (ECACC clone; ATCC clone for [Cys5]-CGRP); settings: 125I-CGRP binding, SK-N-MC membranes; listed as [Cys^5]-CGRP
Procedure: as §2

CGRP receptor [3] = biological target: T2, CGRP receptor; assay: cAMP production in SK-N-MC cells; type: cell-based; set-up: relative expression levels of the receptors (endogenous vs. overexpressed); endogenous in cells; host or cells: SK-N-MC cells (ECACC clone; ATCC clone for [Cys5]-CGRP)
Procedure: (§3) Production of cAMP in SK-N-MC cells for all analogues except [[…]]-hαCGRP was by a radioreceptor assay, as described previously (Poyner et al., [1998]). […] For [[…]]-hαCGRP, a different clone of SK-N-MC cells was used and cAMP production was measured via AlphaScreen (Perkin Elmer, Wellesley, MA, USA), as described previously ([…] et al., [2010]). This assay was also used to investigate the action of all derivatives at the AMY1(a) receptor and other experiments using Cos 7 cells. […] GraphPad Prism 5.00 or 6.00 (GraphPad Software Inc., San Diego, CA, USA) was used for data fitting. Concentration-response curves were fitted to a sigmoidal function with Hill slope constrained to unity to obtain pEC50 and maximum responses (Emax) values. Displacement curves were analysed to obtain pIC50 values. Schild plots were fitted by linear regression to obtain slope and intercepts. pEC50 and pIC50 values were compared with that of human αCGRP using Dunnett's test with either a normal or repeated measures one-way ANOVA, as appropriate.

CGRP receptor [4] = biological target: T2, CGRP receptor; assay: cAMP production in Cos 7 cells transfected with CLR and RAMP1; type: cell-based; set-up: relative expression levels of the receptors (endogenous vs. overexpressed); endogenous in cells; host or cells: SK-N-MC cells (ECACC clone; ATCC clone for [Cys5]-CGRP); settings: read-out: Emax, % of that of CGRP, AlphaScreen
Procedure: as §1

CGRP receptor [5] = biological target: T2, CGRP receptor; assay: Antagonism of CGRP-stimulated cAMP production in SK-N-MC cells; type: cell-based; set-up: relative expression levels of the receptors (endogenous vs. overexpressed); endogenous in cells; host or cells: SK-N-MC cells (ECACC clone; ATCC clone for [Cys5]-CGRP)
Procedure: as §3

[6] = system: porcine iris ciliary body; settings: ref Heino et al., 1998; cited from earlier work
Description: Similarly, substitution of Thr-6 ...

[7] = biological target: AMY_(1(a)) receptor (human HA-tagged CT (a) receptor with human myc-tagged RAMP1) (human) (UniProt O60894)
[8] = biological target: T3, CGRP receptor (calcitonin receptor-like receptor in complex with receptor activity-modifying protein 1) (human (endogenous in SK-N-MC), UniProt Q16602 23-461; O60894 27-148); assay: radioligand binding; displacement of ^125I-CGRP from SK-N-MC cell membranes by unlabelled peptides, microcentrifugation-based binding assay; [Cys^5]-CGRP and its control on another batch of SK-N-MC cells; settings: one partner purified
[9] = biological target: T3, CGRP receptor (calcitonin receptor-like …); assay: cell-based or functional assay
[10] = biological target: T3, CGRP receptor (calcitonin receptor-like …); assay: cell-based or functional assay; remark: listed apart in the source
[11] = AlphaScreen, means ± SEM, n = 3–6, listed as [Cys^6]
[12] = 2 h stimulation, means ± SEM, n = 3, listed as [Cys^6]
[13] = radioreceptor assay, approx. 10 min, means ± SEM, n = 3–6, listed as [Cys^6]

T2 sequence (Q16602 23-461): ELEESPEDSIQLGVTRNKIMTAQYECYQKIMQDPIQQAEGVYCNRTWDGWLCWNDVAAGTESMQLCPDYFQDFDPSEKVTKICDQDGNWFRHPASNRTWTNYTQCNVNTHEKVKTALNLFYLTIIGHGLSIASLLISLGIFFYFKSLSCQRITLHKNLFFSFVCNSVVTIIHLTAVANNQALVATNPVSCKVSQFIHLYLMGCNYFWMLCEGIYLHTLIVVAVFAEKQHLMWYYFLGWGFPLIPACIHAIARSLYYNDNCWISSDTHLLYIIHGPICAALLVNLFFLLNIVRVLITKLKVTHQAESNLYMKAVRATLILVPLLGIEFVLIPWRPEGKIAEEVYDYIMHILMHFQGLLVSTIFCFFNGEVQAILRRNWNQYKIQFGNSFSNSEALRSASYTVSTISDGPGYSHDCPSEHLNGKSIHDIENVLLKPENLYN
T2 sequence (O60894 27-148): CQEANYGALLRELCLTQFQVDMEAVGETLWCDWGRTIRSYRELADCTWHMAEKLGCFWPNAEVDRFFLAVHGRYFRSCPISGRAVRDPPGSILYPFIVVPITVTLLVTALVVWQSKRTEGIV
T3 sequence (Q16602 23-461, chain 1 of 2): as the sequence (Q16602 23-461) above
T3 sequence (O60894 27-148, chain 2 of 2): as the sequence (O60894 27-148) above
T1 sequence (P30988 25-474): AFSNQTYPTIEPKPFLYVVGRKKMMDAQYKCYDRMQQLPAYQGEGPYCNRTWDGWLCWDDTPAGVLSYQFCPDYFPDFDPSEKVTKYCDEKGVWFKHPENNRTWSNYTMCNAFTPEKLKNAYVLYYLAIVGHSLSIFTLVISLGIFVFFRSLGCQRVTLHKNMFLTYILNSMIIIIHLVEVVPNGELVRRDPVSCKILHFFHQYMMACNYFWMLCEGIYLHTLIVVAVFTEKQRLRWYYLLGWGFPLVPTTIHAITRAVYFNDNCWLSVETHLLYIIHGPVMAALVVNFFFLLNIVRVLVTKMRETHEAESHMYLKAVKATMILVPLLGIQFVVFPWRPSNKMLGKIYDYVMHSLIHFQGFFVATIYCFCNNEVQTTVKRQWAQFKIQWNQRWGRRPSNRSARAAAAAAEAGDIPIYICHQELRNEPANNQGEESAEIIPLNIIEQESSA
T1 sequence (O60894 27-148): as the sequence (O60894 27-148) above
Sequence of AMY_(1(a)) receptor (human HA-tagged CT (a) receptor with human myc-tagged RAMP1) (human) (O60894 whole entry, looked up): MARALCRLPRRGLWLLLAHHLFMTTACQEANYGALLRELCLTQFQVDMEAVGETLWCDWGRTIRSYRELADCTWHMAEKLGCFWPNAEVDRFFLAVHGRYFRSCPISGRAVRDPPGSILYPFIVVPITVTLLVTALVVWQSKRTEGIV

Row | Molecule | Emax (% CGRP), cAMP production in Cos 7 cells with the AMY (1(a)) receptor [7] | pEC50, cAMP production in Cos 7 cells with the AMY (1(a)) receptor [7] | pKi [8] | pEC50, cAMP production in the second clone of SK-N-MC cells, AlphaScreen (control experiment) [9] | Emax (% CGRP), cAMP production in SK-N-MC cells [10] | Emax (% CGRP), β-arrestin 2 translocation in CHO-K1 cells expressing the human CGRP receptor [10] | pEC50, cAMP production in SK-N-MC cells [10] | pEC50, β-arrestin 2 translocation in CHO-K1 cells expressing the human CGRP receptor [10] | further results
1 | CC(C)C[C@H](NC(=O)CNC(=O)[C@H](C)NC(=O)[C@H](CC(C)C)NC(=O)[C@H](CCCNC(=N)N)NC(=O)[C@H](Cc1c[nH]cn1)NC(=O)[C@@H](NC(=O)[C@@H](NC(=O)[C@@H]1CSSC[C@H](NC(=O)[C@@H](N)CS)C(=O)N[C@@H](CC(=O)O)C(=O)N[C@@H]([C@@H](C)O)C(=O)N[C@@H](C)C(=O)N[C@@H]([C@@H](C)O)C(=O)N1)C(C)C)[C@@H](C)O)C(=O)N[C@@H](CC(C)C)C(=O)N[C@@H](CO)C(=O)N[C@@H](CCCNC(=N)N)C(=O)N[C@@H](CO)C(=O)NCC(=O)NCC(=O)N[C@H](C(=O)N[C@H](C(=O)N[C@@H](CCCCN)C(=O)N[C@@H](CC(N)=O)C(=O)N[C@@H](CC(N)=O)C(=O)N[C@@H](Cc1ccccc1)C(=O)N[C@H](C(=O)N1CCC[C@H]1C(=O)N[C@H](C(=O)N[C@@H](CC(N)=O)C(=O)N[C@H](C(=O)NCC(=O)N[C@@H](CO)C(=O)N[C@@H](CCCCN)C(=O)N[C@@H](C)C(=O)N[C@@H](Cc1ccccc1)C(N)=O)C(C)C)[C@@H](C)O)C(C)C)C(C)C)C(C)C [[Cys^1]] |  |  |  |  |  |  |  |  | fold less potent than CGRP, cAMP at AMY1(a) receptor (AMY1(a) receptor): 75 fold; stimulation of cAMP production at AMY1(a) receptor (AMY1(a) receptor): no consistent stimulations; AMY1(a) receptor-stimulated cAMP Emax (% CGRP) CGRP analogue (AMY1(a) receptor; [11]): Undetectable; AMY1(a) receptor-stimulated cAMP pEC50 CGRP analogue (AMY1(a) receptor; [11]): Undetectable; β-Arrestin (CHO-K1) Emax (% CGRP) CGRP analogue (CGRP receptor [1]; [12]): Undetectable; β-Arrestin (CHO-K1) pEC50 CGRP analogue (CGRP receptor [1]; [12]): Undetectable; Emax (CGRP receptor [1]; CHO-K1, CHO-K1 cells, compared with CGRP, read-out: reduction of Emax, β-arrestin 2 translocation): 45%; decrease in potency for β-arrestin 2 translocation compared with CGRP (CGRP receptor [1]; CHO-K1 cells): ninefold; stimulation of β-arrestin 2 translocation (CGRP receptor [1]; CHO-K1 cells, [Asp6] and [Lys6] at concentrations of up to 1 μM): unable to stimulate; decrease in affinity compared with CGRP (CGRP receptor [2]): > 270 fold; decrease in potency on cAMP compared with CGRP (CGRP receptor [3]; SK-N-MC cells): over 100 fold; stimulation of cAMP production (CGRP receptor [3]; SK-N-MC cells, [Asp6] and [Lys6] at concentrations of up to 10 μM): unable to stimulate; cAMP (SK-N-MC) Emax (% CGRP) CGRP analogue (CGRP receptor [3]; [13]): Undetectable; cAMP (SK-N-MC) pEC50 CGRP analogue (CGRP receptor [3]; [13]): Undetectable; Emax (CGRP receptor [4]): 90 ± 8%; slope of Schild plot (CGRP receptor [5]; listed as [Cys^5]-CGRP): 1.33 ± 0.30; slope of Schild plot (CGRP receptor [5]; listed as [Cys^6]-CGRP): 0.98 ± 0.20
2 | [Val^6]-CGRP: CGRP analogue substituted at position 6, from Heino et al., 1998 (ACDTAVCVTHRLAGLLSRSGGVVKNNFVPTNVGSKAF-NH2; disulfide 2-7; ends not checked; UniProt P06881 83-119, looked up, variant T6V) |  |  |  |  |  |  |  |  | stimulation of cAMP production [6]: inactive
3 | B1 | 42 % CGRP | 7 | 8.57 | 7.39 | 72 % CGRP | 43 % CGRP | 6.59 | 7.74 | 
4 | B2 | 161 % CGRP | 8.57 | 9.4 | 7.58 | 100 % CGRP | 73 % CGRP | 7.43 | 8.42 | 
5 | B3 | 50 % CGRP | 7.78 | 8 |  |  | 55 % CGRP |  | 8.25 | pEC50, cAMP production in Cos 7 cells transfected with CLR and RAMP1 [9]: 7.9; pEC50, cAMP production in SK-N-MC cells (other clone of cells, AlphaScreen; footnote: no response seen in five experiments) [10]: 7.18
